PMC12102759 (2025)

B1: PEX5 peptide 240-255 (Peroxisomal targeting signal 1 receptor), 16-mer library wild type / PEX14 Pex14 (PEX14 PEX14, residues 16-84) (parent complex)
chain 1: AEQWAAEFIQQQGTSD
chain 2: TPGSENVLPREPLIATAVKFLQNSRVRQSPLATRRAFLKKKGLTDEEIDMAFQQSGTAADEPSSLGPAT

Variants of: B1
Assay: proteomic peptide phage display deep mutational scan (ProP-PD DMS): M13 P8 16-mer library selected against immobilised GST-tagged bait for four days (rounds), NGS of the eluted pools per day and pseudo-replica; bait immobilised on MaxiSorp plates (10 µg), library pre-cleared on GST, 2 h binding at 4 °C, five washes; one round per day, days 1-4; value from days 2 and 3

| Variant | screen value |
| --- | --- |
| chain 1 AEQWAAEFIQHQGTSD [chain 1 Q11H] | 0.00664 average fractional NGS count over selection days 2 and 3 (reads of this peptide / all reads for the bait, averaged over … |
| chain 1 AEQWAAEFIQLQGTSD [chain 1 Q11L] | 0.0026 average fractional NGS count over selection days 2 and 3 (reads of this peptide / all reads for the bait, averaged over … |
| chain 1 AEQWAAEFIQQQMTSD [chain 1 G13M] | 0.000519 average fractional NGS count over selection days 2 and 3 (reads of this peptide / all reads for the bait, averaged over … |
| chain 1 AEQWAAEFIQQQYTSD [chain 1 G13Y] | 0.000307 average fractional NGS count over selection days 2 and 3 (reads of this peptide / all reads for the bait, averaged over … |
| chain 1 AEQWAAEFIQQQKTSD [chain 1 G13K] | 0.000992 average fractional NGS count over selection days 2 and 3 (reads of this peptide / all reads for the bait, averaged over … |
| chain 1 AEQWAAEFIQQQQTSD [chain 1 G13Q] | 0.000525 average fractional NGS count over selection days 2 and 3 (reads of this peptide / all reads for the bait, averaged over … |
| chain 1 AEQWAAEFINQQGTSD [chain 1 Q10N] | 0.00173 average fractional NGS count over selection days 2 and 3 (reads of this peptide / all reads for the bait, averaged over … |
| chain 1 AEQWAAEFIMQQGTSD [chain 1 Q10M] | 0.00324 average fractional NGS count over selection days 2 and 3 (reads of this peptide / all reads for the bait, averaged over … |
| chain 1 AEQWAAEFILQQGTSD [chain 1 Q10L] | 0.00121 average fractional NGS count over selection days 2 and 3 (reads of this peptide / all reads for the bait, averaged over … |
| chain 1 AEQWAAEFIVQQGTSD [chain 1 Q10V] | 0.00204 average fractional NGS count over selection days 2 and 3 (reads of this peptide / all reads for the bait, averaged over … |
| chain 1 AEQWAAEFITQQGTSD [chain 1 Q10T] | 0.00279 average fractional NGS count over selection days 2 and 3 (reads of this peptide / all reads for the bait, averaged over … |
| chain 1 ATQWAAEFIQQQGTSD [chain 1 E2T] | 0.00227 average fractional NGS count over selection days 2 and 3 (reads of this peptide / all reads for the bait, averaged over … |
| chain 1 AYQWAAEFIQQQGTSD [chain 1 E2Y] | 0.00378 average fractional NGS count over selection days 2 and 3 (reads of this peptide / all reads for the bait, averaged over … |
| chain 1 ASQWAAEFIQQQGTSD [chain 1 E2S] | 0.000804 average fractional NGS count over selection days 2 and 3 (reads of this peptide / all reads for the bait, averaged over … |
| chain 1 AWQWAAEFIQQQGTSD [chain 1 E2W] | 0.000954 average fractional NGS count over selection days 2 and 3 (reads of this peptide / all reads for the bait, averaged over … |
| chain 1 ADQWAAEFIQQQGTSD [chain 1 E2D] | 0.00048 average fractional NGS count over selection days 2 and 3 (reads of this peptide / all reads for the bait, averaged over … |
| chain 1 AEQWAAEFIQQVGTSD [chain 1 Q12V] | 0.0011 average fractional NGS count over selection days 2 and 3 (reads of this peptide / all reads for the bait, averaged over … |
| chain 1 AEQWAAEFIQQEGTSD [chain 1 Q12E] | 0.00182 average fractional NGS count over selection days 2 and 3 (reads of this peptide / all reads for the bait, averaged over … |
| chain 1 AEQWAAEFIQQLGTSD [chain 1 Q12L] | 0.00232 average fractional NGS count over selection days 2 and 3 (reads of this peptide / all reads for the bait, averaged over … |

| Variant | screen value |
| --- | --- |
| chain 1 AEQWAAEFIQQYGTSD [chain 1 Q12Y] | 0.00103 average fractional NGS count over selection days 2 and 3 (reads of this peptide / all reads for the bait, averaged over … |
| chain 1 AEQWAALFIQQQGTSD [chain 1 E7L] | 0.0199 average fractional NGS count over selection days 2 and 3 (reads of this peptide / all reads for the bait, averaged over … |
| chain 1 AEQWAAIFIQQQGTSD [chain 1 E7I] | 0.000858 average fractional NGS count over selection days 2 and 3 (reads of this peptide / all reads for the bait, averaged over … |
| chain 1 AEQWAATFIQQQGTSD [chain 1 E7T] | 0.0012 average fractional NGS count over selection days 2 and 3 (reads of this peptide / all reads for the bait, averaged over … |
| chain 1 AEQWAAKFIQQQGTSD [chain 1 E7K] | 0.000488 average fractional NGS count over selection days 2 and 3 (reads of this peptide / all reads for the bait, averaged over … |
| chain 1 AEQWAAQFIQQQGTSD [chain 1 E7Q] | 0.00112 average fractional NGS count over selection days 2 and 3 (reads of this peptide / all reads for the bait, averaged over … |
| chain 1 AEQWAAEFIQQQGTLD [chain 1 S15L] | 0.00083 average fractional NGS count over selection days 2 and 3 (reads of this peptide / all reads for the bait, averaged over … |
| chain 1 AEQWAAEFIQQQGTGD [chain 1 S15G] | 0.00221 average fractional NGS count over selection days 2 and 3 (reads of this peptide / all reads for the bait, averaged over … |
| chain 1 AEQWAAEFIQQQGTQD [chain 1 S15Q] | 0.0029 average fractional NGS count over selection days 2 and 3 (reads of this peptide / all reads for the bait, averaged over … |
| chain 1 AEQWAAEFIQQQGTTD [chain 1 S15T] | 0.00362 average fractional NGS count over selection days 2 and 3 (reads of this peptide / all reads for the bait, averaged over … |
| chain 1 AEQWAAEFIQQQGTRD [chain 1 S15R] | 0.00217 average fractional NGS count over selection days 2 and 3 (reads of this peptide / all reads for the bait, averaged over … |
| chain 1 AEMWAAEFIQQQGTSD [chain 1 Q3M] | 0.002 average fractional NGS count over selection days 2 and 3 (reads of this peptide / all reads for the bait, averaged over … |
| chain 1 AERWAAEFIQQQGTSD [chain 1 Q3R] | 0.000498 average fractional NGS count over selection days 2 and 3 (reads of this peptide / all reads for the bait, averaged over … |
| chain 1 AEWWAAEFIQQQGTSD [chain 1 Q3W] | 0.00112 average fractional NGS count over selection days 2 and 3 (reads of this peptide / all reads for the bait, averaged over … |
| chain 1 AEQWADEFIQQQGTSD [chain 1 A6D] | 0.0111 average fractional NGS count over selection days 2 and 3 (reads of this peptide / all reads for the bait, averaged over … |
| chain 1 AEQWAREFIQQQGTSD [chain 1 A6R] | 0.00273 average fractional NGS count over selection days 2 and 3 (reads of this peptide / all reads for the bait, averaged over … |
| chain 1 AEQWAIEFIQQQGTSD [chain 1 A6I] | 0.00623 average fractional NGS count over selection days 2 and 3 (reads of this peptide / all reads for the bait, averaged over … |
| chain 1 AEQWASEFIQQQGTSD [chain 1 A6S] | 0.00105 average fractional NGS count over selection days 2 and 3 (reads of this peptide / all reads for the bait, averaged over … |
| chain 1 AEQWAGEFIQQQGTSD [chain 1 A6G] | 0.00471 average fractional NGS count over selection days 2 and 3 (reads of this peptide / all reads for the bait, averaged over … |

| Variant | screen value |
| --- | --- |
| chain 1 AEQWRAEFIQQQGTSD [chain 1 A5R] | 0.00499 average fractional NGS count over selection days 2 and 3 (reads of this peptide / all reads for the bait, averaged over … |
| chain 1 AEQWAAEFIQQQGQSD [chain 1 T14Q] | 0.000835 average fractional NGS count over selection days 2 and 3 (reads of this peptide / all reads for the bait, averaged over … |
| chain 1 AEQWAAEFIQQQGNSD [chain 1 T14N] | 0.000434 average fractional NGS count over selection days 2 and 3 (reads of this peptide / all reads for the bait, averaged over … |
| chain 1 AEQWAAEFIQQQGESD [chain 1 T14E] | 0.000967 average fractional NGS count over selection days 2 and 3 (reads of this peptide / all reads for the bait, averaged over … |
| chain 1 AEQWAAEFIQQQGFSD [chain 1 T14F] | 0.00226 average fractional NGS count over selection days 2 and 3 (reads of this peptide / all reads for the bait, averaged over … |
| chain 1 AEQWAAEFIQQQGWSD [chain 1 T14W] | 0.000366 average fractional NGS count over selection days 2 and 3 (reads of this peptide / all reads for the bait, averaged over … |
| chain 1 AEQWAAEFIQQQGPSD [chain 1 T14P] | 0.00162 average fractional NGS count over selection days 2 and 3 (reads of this peptide / all reads for the bait, averaged over … |
| chain 1 AEQWAAEFHQQQGTSD [chain 1 I9H] | 0.0279 average fractional NGS count over selection days 2 and 3 (reads of this peptide / all reads for the bait, averaged over … |
| chain 1 AEQWAAEFMQQQGTSD [chain 1 I9M] | 0.00443 average fractional NGS count over selection days 2 and 3 (reads of this peptide / all reads for the bait, averaged over … |
| chain 1 AEQWAAEFTQQQGTSD [chain 1 I9T] | 0.000404 average fractional NGS count over selection days 2 and 3 (reads of this peptide / all reads for the bait, averaged over … |
| chain 1 AEQWAAEFLQQQGTSD [chain 1 I9L] | 0.000942 average fractional NGS count over selection days 2 and 3 (reads of this peptide / all reads for the bait, averaged over … |
| chain 1 AEQWAAEFKQQQGTSD [chain 1 I9K] | 0.000873 average fractional NGS count over selection days 2 and 3 (reads of this peptide / all reads for the bait, averaged over … |
| chain 1 AEQWAAEFDQQQGTSD [chain 1 I9D] | 0.000867 average fractional NGS count over selection days 2 and 3 (reads of this peptide / all reads for the bait, averaged over … |
| chain 1 AEQWAAEFYQQQGTSD [chain 1 I9Y] | 0.0023 average fractional NGS count over selection days 2 and 3 (reads of this peptide / all reads for the bait, averaged over … |
| chain 1 HEQWAAEFIQQQGTSD [chain 1 A1H] | 0.0701 average fractional NGS count over selection days 2 and 3 (reads of this peptide / all reads for the bait, averaged over … |
| chain 1 IEQWAAEFIQQQGTSD [chain 1 A1I] | 0.000927 average fractional NGS count over selection days 2 and 3 (reads of this peptide / all reads for the bait, averaged over … |
| chain 1 PEQWAAEFIQQQGTSD [chain 1 A1P] | 0.000938 average fractional NGS count over selection days 2 and 3 (reads of this peptide / all reads for the bait, averaged over … |
| chain 1 QEQWAAEFIQQQGTSD [chain 1 A1Q] | 0.00549 average fractional NGS count over selection days 2 and 3 (reads of this peptide / all reads for the bait, averaged over … |
